According to publication PMC9865274, “Ultrasensitive Detection of Interleukin 6 by Using Silicon Nanowire Field-Effect Transistors”:

Molecular target: Interleukin 6 (IL-6) (Homo sapiens, UniProt P05231 30-212)
Test: SiNW-FET (gate voltage shift); aptamer immobilized on mSAMs-GA; IL-6 in PBS pH 7.4, 30 min; valid signal from 100 fM (2.1 pg/mL), approx. linear to 10 nM; no Kd; IL-6 in PBS pH 7.4, 30 min incubation, PBS wash; readout in 10 mM bis-tris propane pH 7.4; temperature of binding not stated
Settings: protein: commercial

Chain of Interleukin 6 (IL-6) (P05231 30-212): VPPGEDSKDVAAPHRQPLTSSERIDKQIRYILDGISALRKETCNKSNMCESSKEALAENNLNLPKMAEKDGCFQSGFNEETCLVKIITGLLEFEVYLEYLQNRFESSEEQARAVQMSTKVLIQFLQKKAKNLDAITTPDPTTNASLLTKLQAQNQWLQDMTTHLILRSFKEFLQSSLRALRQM

GGTGGCAGGAGGACTATTTATTTGCTTTTCT (ssDNA, 5'-NH2-C6, covalently immobilized via glutaraldehyde on mixed-SAM SiNW-FET) [anti-IL-6 aptamer (31 nt)]: binds.
